Positions count from the first letter of the chain named. Names may count otherwise. Blank lines part the entries; values can stand above or below the binder they belong to.
Tests used:
[1] = target: Human Factor B (human) (UniProt P00751); experiment: cell-based or functional assay
[2] = target: EGVD/AE-ACT; experiment: reaction of the protease with the serpin bait EGVD/AE-ACT

Chain of Human Factor B (human) (P00751 26-764 limits assumed): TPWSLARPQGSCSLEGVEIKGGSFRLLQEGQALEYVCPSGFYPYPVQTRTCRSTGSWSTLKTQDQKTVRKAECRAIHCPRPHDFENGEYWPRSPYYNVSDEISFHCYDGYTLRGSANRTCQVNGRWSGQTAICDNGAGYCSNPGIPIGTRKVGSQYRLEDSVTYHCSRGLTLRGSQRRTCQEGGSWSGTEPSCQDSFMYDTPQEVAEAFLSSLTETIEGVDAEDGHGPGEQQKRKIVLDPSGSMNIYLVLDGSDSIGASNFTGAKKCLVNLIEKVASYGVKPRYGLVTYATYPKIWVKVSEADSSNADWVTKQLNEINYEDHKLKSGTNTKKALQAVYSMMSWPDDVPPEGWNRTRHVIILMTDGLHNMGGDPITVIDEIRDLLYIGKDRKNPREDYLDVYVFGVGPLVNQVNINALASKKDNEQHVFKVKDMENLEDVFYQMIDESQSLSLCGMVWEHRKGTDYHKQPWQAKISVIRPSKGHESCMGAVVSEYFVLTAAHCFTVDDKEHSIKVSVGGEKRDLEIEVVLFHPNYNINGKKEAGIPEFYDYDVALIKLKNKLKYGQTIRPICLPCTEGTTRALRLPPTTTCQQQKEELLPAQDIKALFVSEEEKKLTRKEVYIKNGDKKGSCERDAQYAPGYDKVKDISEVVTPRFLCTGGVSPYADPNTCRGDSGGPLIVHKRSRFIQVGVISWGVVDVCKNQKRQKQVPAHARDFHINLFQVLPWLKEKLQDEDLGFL

B1: chymase C22S/K111E/F173L/Y215H/A226R (enzyme)
chain: IIGGTESKPHSRPYMAYLEIVTSNGPSKFCGGFLIRRNFVLTAAHCAGRSITVTLGAHNITEEEDTWQKLEVIKQFRHPKYNTSTLHHDIMLLKLKEEASLTLAVGTLPFPSQFNFVPPGRMCRVAGWGRTGVLKPGSDTLQEVKLRLMDPQACSHLRDFDHNLQLCVGNPRKTKSAFKGDSGGPLLCAGVAQGIVSHGRSDAKPPRVFTRISHYRPWINQILQAN
fB Cleavage EC50 [1]: 9.01 µM

B2: chymase C22S/F41K/L99H/G151A/F173Y/Y215K/R217S/A226R (enzyme)
chain: B1 chain with F29K, L86H, E98K, G137A, L157Y, H198K, R200S
fB Cleavage EC50 [1]: 1.31 µM
fB Cleavage, 64% A2M-depl plasma EC50 [1]: 5.75 µM
fB Cleavage, 64% plasma EC50 [1]: 5.69 µM
fB Cleavage, 80% plasma EC50 [1]: 18.6 µM

B3: chymase C22S/F41R/L99H/F173L/Y215K/A226R (enzyme)
chain: B1 chain with F29R, L86H, E98K, H198K
fB Cleavage EC50 [1]: 6.64 µM

B5: chymase C22S/K93Q/G119D/F173S/K192R/A226R (enzyme)
chain: B1 chain with K80Q, E98K, G106D, L157S, K179R, H198Y
fB Cleavage EC50 [1]: 7.77 µM

B6: chymase C22S/L99R/F173Y/K192R/A226R (enzyme)
chain: B1 chain with L86R, E98K, L157Y, K179R, H198Y
fB Cleavage EC50 [1]: 3.28 µM

B7: chymase C22S/L99H/F173Y/K192R/Y215K/R217S/S218V/A226R (enzyme)
chain: B1 chain with L86H, E98K, L157Y, K179R, H198K, R200S, S201V
fB Cleavage EC50 [1]: 3.46 µM

B10: chymase C22S/F41R/L99H/F173Y/Y215K/A226R (enzyme)
chain: B1 chain with F29R, L86H, E98K, L157Y, H198K
fB Cleavage EC50 [1]: 4.8 µM

B11: chymase C22S/F41G/L99H/G151T/F173Y/Y215K/A226R (enzyme)
chain: B1 chain with F29G, L86H, E98K, G137T, L157Y, H198K
fB Cleavage EC50 [1]: 6.6 µM

B12: chymase C22S/F41V/L99H/G151R/F173L/Y215R/R217T/A226R (enzyme)
chain: B1 chain with F29V, L86H, E98K, G137R, H198R, R200T
k*app (second order rate constant) [2]: 1130

B13: chymase C22S/F41G/L99H/F173Y/Y215K/A226R (enzyme)
chain: B1 chain with F29G, L86H, E98K, L157Y, H198K
fB Cleavage EC50 [1]: 6.65 µM

B14: chymase C22S/K40L/F41V/G151R/K192R/A226R (enzyme)
chain: B1 chain with K28L, F29V, E98K, G137R, L157F, K179R, H198Y
fB Cleavage EC50 [1]: 7.5 µM

B16: chymase C22S/F173Y/A226R (enzyme)
chain: B1 chain with E98K, L157Y, H198Y
fB Cleavage EC50 [1]: 0.65 µM
fB Cleavage, 80% plasma EC50 [1]: 21 µM

B19: chymase C22S/K192R/A226R (enzyme)
chain: B1 chain with E98K, L157F, K179R, H198Y
k*app (second order rate constant) [2]: 147

B20: chymase C22S/F41L/L99H/G151T/F173L/Y215K/A226R (enzyme)
chain: B1 chain with F29L, L86H, E98K, G137T, H198K
fB Cleavage EC50 [1]: 4.17 µM

B22: chymase C22S/F41V/L99H/G151R/F173S/Y215K/A226R (enzyme)
chain: B1 chain with F29V, L86H, E98K, G137R, L157S, H198K
fB Cleavage EC50 [1]: 4.78 µM

B23: chymase C22S/F41V/L99F/G151R/F173K/R217S/A226R (enzyme)
chain: B1 chain with F29V, L86F, E98K, G137R, L157K, H198Y, R200S
k*app (second order rate constant) [2]: 652

B24: chymase C22S/F41R/L99H/G151T/F173L/Y215K/A226R (enzyme)
chain: B1 chain with F29R, L86H, E98K, G137T, H198K
fB Cleavage EC50 [1]: 4.8 µM

B25: chymase C22S/K40M/F41V/G151R/K192R/A226R (enzyme)
chain: B1 chain with K28M, F29V, E98K, G137R, L157F, K179R, H198Y
fB Cleavage EC50 [1]: 7.77 µM

Next, values leading:

fB Cleavage EC50 [1]: 0.83 µM
B4: chymase C22S/S218I/A226R (enzyme)
chain: B1 chain with E98K, L157F, H198Y, S201I

fB Cleavage EC50 [1]: 2.49 µM
B8: chymase C22S/L99W/F173K/K192R/R217S/S218V/A226R (enzyme)
chain: B1 chain with L86W, E98K, L157K, K179R, H198Y, R200S, S201V

fB Cleavage EC50 [1]: 6.64 µM
B9: chymase C22S/L160V/S189T/A226R (enzyme)
chain: B1 chain with E98K, L146V, L157F, S176T, H198Y

fB Cleavage EC50 [1]: 0.546 µM
B15: chymase C22S/L99R/F173Y/S218L/A226R (enzyme)
chain: B1 chain with L86R, E98K, L157Y, H198Y, S201L

fB Cleavage EC50 [1]: 7.98 µM
B17: chymase C22S/S189T/A226R (enzyme)
chain: B1 chain with E98K, L157F, S176T, H198Y

fB Cleavage EC50 [1]: 3.48 µM
B18: chymase C22S/V138L/A226R (enzyme)
chain: B1 chain with E98K, V125L, L157F, H198Y

fB Cleavage EC50 [1]: 7.51 µM
B21: chymase C22S/L99R/K192R/S218L/A226R (enzyme)
chain: B1 chain with L86R, E98K, L157F, K179R, H198Y, S201L

fB Cleavage EC50 [1]: 3.16 µM
B26: chymase C22S/M135T/P150S/S152G/Q166H/D175N/A190T/A226R (enzyme)
chain: B1 chain with E98K, M122T, P136S, S138G, Q152H, L157F, D159N, A177T, H198Y

fB Cleavage EC50 [1]: 1.26 µM
B27: chymase E21G/C22S/R61H/M135T/F173Y/D175N/A209V/A226R (enzyme)
chain: B1 chain with E6G, R49H, E98K, M122T, L157Y, D159N, A192V, H198Y

fB Cleavage EC50 [1]: 3.74 µM
B28: chymase C22S/P38Q/H100P/L116R/F123L/Q180H/A226R/R235S (enzyme)
chain: B1 chain with P26Q, H87P, E98K, L103R, F110L, L157F, Q165H, H198Y, R216S

Reference: patent US20240117334A1, “FACTOR B PROTEASES” (Vertex Pharmaceuticals Incorporated, priority 2021, published 2024)
